Assay results: patent US20260226133A1 (ANGELES THERAPEUTICS, published 2026)
Positions count from the first letter of the chain named. In names and notes the source's numbering stands.

Tests used:
CD33 = target: T1, CD33 (UniProt P20138 18-364, limits assumed); assay: Malibu-Glo assay; NLuc fusion supernatant on HL60 cells, control Jurkat cells
T1 construct: whole, on cells

DLL3 = target: T2, DLL3 (UniProt Q9NYJ7 27-618, limits assumed); assay: Malibu-Glo assay; NLuc fusion supernatant on NCI-H82 cells, control K562 cells
T2 construct: whole, on cells
T2 sequence (looked up): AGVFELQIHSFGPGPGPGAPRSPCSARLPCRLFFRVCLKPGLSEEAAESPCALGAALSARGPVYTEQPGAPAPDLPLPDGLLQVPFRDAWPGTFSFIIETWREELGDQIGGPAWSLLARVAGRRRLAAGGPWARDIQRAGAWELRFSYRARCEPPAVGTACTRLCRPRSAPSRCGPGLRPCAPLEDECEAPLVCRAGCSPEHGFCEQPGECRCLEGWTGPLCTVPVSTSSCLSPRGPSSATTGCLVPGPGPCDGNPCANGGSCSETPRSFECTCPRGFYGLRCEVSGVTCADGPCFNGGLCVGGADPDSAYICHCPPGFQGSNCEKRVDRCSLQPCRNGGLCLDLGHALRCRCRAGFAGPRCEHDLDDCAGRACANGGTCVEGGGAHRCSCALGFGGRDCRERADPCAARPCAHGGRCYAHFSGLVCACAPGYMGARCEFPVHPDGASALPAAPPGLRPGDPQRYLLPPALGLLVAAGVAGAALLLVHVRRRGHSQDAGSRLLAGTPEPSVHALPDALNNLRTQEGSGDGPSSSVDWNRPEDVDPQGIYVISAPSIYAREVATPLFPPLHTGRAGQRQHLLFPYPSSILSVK

STEAP2 = target: T3, STEAP2 (UniProt Q8NFT2 1-490, limits assumed); assay: Malibu-Glo assay; NLuc fusion supernatant on LNCaP cells, control K562 cells
T3 construct: whole, on cells
T3 sequence (looked up): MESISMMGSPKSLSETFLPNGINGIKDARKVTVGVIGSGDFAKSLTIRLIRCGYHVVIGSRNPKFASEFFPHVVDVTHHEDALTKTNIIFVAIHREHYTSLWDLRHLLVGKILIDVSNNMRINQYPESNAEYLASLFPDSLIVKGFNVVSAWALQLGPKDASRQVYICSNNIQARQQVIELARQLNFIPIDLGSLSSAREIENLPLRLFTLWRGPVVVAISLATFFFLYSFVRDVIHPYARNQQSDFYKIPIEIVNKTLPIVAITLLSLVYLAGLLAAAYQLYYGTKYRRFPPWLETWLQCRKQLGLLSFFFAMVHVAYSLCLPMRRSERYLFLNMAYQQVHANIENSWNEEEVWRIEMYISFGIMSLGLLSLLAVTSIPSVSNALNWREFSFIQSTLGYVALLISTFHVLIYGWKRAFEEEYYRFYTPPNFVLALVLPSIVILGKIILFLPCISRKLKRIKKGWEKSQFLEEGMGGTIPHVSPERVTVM

IL23R = target: T4, IL23R (UniProt Q5VWK5 24-629, limits assumed); assay: Malibu-Glo assay; NLuc fusion supernatant on L363 cells, control K562 cells
T4 construct: whole, on cells
T4 sequence (looked up): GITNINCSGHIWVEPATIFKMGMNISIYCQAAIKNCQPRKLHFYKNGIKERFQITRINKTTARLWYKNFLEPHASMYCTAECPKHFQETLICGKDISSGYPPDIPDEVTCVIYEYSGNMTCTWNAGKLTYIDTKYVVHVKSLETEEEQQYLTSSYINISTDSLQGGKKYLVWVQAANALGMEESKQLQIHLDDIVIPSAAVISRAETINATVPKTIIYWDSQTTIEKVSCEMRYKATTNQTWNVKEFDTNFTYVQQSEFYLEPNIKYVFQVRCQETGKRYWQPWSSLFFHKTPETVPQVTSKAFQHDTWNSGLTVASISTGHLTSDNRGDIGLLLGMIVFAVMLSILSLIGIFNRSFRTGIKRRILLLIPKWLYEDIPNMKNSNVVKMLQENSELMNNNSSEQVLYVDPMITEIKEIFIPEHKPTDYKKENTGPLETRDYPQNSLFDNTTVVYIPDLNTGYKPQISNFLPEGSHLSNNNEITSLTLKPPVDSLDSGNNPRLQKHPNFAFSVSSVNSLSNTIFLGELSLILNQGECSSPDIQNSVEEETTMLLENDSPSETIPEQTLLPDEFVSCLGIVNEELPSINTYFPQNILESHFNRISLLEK

BCMA [1] = target: T5, BCMA (UniProt Q02223 1-184, limits assumed); assay: Malibu-Glo assay; NLuc fusion supernatant on L363 cells, control Jurkat cells
T5 construct: whole, on cells; also called TNF receptor family member B cell maturation (BCMA)
T5 sequence (looked up): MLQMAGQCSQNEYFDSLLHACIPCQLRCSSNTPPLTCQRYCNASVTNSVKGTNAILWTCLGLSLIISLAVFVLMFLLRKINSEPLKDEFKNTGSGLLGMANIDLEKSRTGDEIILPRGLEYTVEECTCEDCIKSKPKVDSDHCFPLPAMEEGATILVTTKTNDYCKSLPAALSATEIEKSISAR

BCMA [2] = target: T5, BCMA; assay: Malibu-Glo assay; NLuc fusion supernatant on H929 cells, control K562 cells
TAJ/TNFRSF19 = target: T6, TAJ/TNFRSF19 (UniProt Q9NS68 30-423, limits assumed); assay: Malibu-Glo assay; NLuc fusion supernatant on LNCaP cells, control 293FT cells
T6 construct: whole, on cells
T6 sequence (looked up): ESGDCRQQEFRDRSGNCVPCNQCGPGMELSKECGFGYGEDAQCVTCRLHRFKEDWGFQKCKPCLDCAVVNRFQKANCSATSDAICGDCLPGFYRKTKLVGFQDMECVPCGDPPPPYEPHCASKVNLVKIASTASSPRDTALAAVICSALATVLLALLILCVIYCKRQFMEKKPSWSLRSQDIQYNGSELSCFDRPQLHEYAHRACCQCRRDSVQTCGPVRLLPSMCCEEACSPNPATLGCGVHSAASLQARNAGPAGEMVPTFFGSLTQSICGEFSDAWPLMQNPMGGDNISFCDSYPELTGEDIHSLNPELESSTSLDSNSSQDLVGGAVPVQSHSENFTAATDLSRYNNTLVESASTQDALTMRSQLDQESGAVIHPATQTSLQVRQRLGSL

MSLN = target: T7, MSLN (UniProt Q13421 37-598, limits assumed); assay: Malibu-Glo assay; NLuc fusion supernatant on SKOV3 cells, control Jurkat cells
T7 construct: whole, on cells; also called Mesothelin

CD19 = target: T8, CD19 (UniProt P15391 20-556, limits assumed); assay: Malibu-Glo assay; NLuc fusion supernatant on RAJI cells, control Jurkat cells
T8 construct: whole, on cells
T8 sequence (looked up): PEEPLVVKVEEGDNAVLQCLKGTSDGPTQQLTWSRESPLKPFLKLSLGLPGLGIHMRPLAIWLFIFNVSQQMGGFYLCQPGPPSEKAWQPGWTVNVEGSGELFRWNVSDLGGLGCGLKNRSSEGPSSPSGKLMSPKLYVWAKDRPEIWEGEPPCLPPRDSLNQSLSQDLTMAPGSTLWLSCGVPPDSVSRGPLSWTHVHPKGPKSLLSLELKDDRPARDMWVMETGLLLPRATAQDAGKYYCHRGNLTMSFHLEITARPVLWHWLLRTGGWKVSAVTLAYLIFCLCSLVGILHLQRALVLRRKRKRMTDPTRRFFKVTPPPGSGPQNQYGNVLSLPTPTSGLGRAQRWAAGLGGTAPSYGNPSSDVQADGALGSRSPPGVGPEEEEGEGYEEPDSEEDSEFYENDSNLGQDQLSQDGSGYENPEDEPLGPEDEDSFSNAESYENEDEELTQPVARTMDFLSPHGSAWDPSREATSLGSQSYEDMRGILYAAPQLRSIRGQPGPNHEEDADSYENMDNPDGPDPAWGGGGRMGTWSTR

CD20 = target: T9, CD20 (UniProt P11836 1-297, limits assumed); assay: Malibu-Glo assay; NLuc fusion supernatant on RAJI cells, control K562 cells
T9 construct: whole, on cells
T9 sequence (looked up): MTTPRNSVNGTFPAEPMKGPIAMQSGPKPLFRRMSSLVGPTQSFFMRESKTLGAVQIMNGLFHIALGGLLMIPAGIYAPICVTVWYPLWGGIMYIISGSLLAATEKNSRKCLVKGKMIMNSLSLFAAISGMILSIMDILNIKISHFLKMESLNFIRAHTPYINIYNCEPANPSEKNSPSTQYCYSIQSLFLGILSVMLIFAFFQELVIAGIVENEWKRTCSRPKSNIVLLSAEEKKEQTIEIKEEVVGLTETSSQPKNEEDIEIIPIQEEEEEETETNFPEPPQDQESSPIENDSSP

T7 sequence (Q13421 other isoform, or with tags, fused parts or gaps limits assumed): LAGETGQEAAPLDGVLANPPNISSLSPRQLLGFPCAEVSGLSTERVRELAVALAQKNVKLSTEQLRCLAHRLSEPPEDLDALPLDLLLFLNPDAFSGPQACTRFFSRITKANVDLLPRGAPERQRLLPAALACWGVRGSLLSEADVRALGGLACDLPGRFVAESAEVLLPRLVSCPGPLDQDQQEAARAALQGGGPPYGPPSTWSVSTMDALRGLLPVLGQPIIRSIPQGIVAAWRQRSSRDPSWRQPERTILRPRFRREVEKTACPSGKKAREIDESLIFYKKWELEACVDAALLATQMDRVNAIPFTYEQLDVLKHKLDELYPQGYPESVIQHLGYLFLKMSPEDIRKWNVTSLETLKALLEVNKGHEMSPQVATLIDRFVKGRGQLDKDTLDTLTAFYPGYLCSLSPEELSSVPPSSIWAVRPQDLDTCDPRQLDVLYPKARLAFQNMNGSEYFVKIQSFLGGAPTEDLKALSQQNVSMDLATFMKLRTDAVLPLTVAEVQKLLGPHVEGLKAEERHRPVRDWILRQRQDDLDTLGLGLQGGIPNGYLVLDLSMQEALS
T1 sequence (P20138 18-364 limits assumed): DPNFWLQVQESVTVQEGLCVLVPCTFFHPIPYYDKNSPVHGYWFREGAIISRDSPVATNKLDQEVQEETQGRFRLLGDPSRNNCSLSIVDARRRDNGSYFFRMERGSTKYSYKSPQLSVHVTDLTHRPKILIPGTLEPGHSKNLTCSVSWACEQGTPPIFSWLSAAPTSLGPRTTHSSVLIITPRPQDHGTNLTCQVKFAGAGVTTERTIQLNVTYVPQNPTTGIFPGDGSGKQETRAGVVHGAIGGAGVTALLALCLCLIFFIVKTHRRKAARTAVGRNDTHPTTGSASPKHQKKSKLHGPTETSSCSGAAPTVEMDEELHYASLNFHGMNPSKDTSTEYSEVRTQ

B1: AT264-S30G vHH (CD33), NLuc fusion (VHH)
VHH: EVQLVESGGGSVQAGGSLRLSCAASGYTYGINCMGWFRQAPGKEREGVAVISTGGGRTDYRDSVKGRFTISQDNAKNTVYLQMNSLKPEDTAMYYCAGKTTYPGYGCGLGRSAYNYWGQGTQVTVSS
Fold Change (Luc activity, target cell line over control cell line) (CD33): 28 fold

B2: DLL3-USC5 vHH (DLL3), NLuc fusion (VHH)
VHH: QVQLVESGGGVVQPGGSLRLSCAASFSGYGVSTMAWFRQAPGKGLEGVAAITVGSGNTYYADSVKGRFTISRDNSKNTVYLQMNSLRAEDTAMYYCAVGWLSGGSWHVPGRYNYWGQGTLVTVSS
Fold Change (Luc activity, target cell line over control cell line) (DLL3): 1.7 fold

B3: STEAP2-RGN-1162-USC1 scFv (STEAP2), NLuc fusion (scFv)
chain: QVQLQQSGPGLVKPSQTLSLTCAISGDSVSSNRAAWNWIRQSPSRGLQWLGRTYYRSKWYNDYAVSLRSRITINPVTSKNQVALHMNSVTPEDTAVYYCARAGIVVVPGPETFYYYDHGLDVWGQGTTVTVSSGGGGSGGGGSGGGGSDIQMTQSPSSLSASVGDRVTITCRASQSIRNYLNWYQQKPGKAPELLIHAASSLQSGVPSRFSGSGSGTDFTLTISSLQPEDFASYYCQQSYSAPPITFGQGTRLEIK
Fold Change (Luc activity, target cell line over control cell line) (STEAP2): 27.4 fold

B4: IL23R-SANG-11 scFv (IL23R), NLuc fusion (scFv)
chain: DIQMTQSPSSLSASVGDRVTITCQASENIYSFLAWYQQKPGKAPKLLIYSASKLAAGVPSRFSGSGSGTDFTLTISSLQPEDFATYYCQQTNRYSNPDIYNVFGQGTKLTVLGGGGGSGGGGSGGGGSEVQLVESGGGLVQPGGSLRLSCAASGIDFNSNYYMCWVRQAPGKGLEWIGCIYVGSHVNTYYANWAKGRFTISRDNSKNTVYLQMNSLRAEDTAVYYCATSGSSVLYFKFWGQGTLVTVSS
Fold Change (Luc activity, target cell line over control cell line) (IL23R): 2.37 fold

B5: hu-E59D-US3 vHH (BCMA), NLuc fusion (VHH)
VHH: EVQLVESGGGLVQPGGSLRLSCAASGRTFTMGWFRQAPGKGREFVAAISLSPTLAYYADSVKGRFTISRDNSKNTVVLQMNSLRAEDTAVYYCAADRKSVMSIRPDYWGQGTQVTVSS
Fold Change (Luc activity, target cell line over control cell line) (BCMA [1]): 2 fold

B6: E59D-USC1 vHH (BCMA), NLuc fusion (VHH)
VHH: B5 VHH with E1Q, F34Y, R42L, A46S, V90L, Q113L
Fold Change (Luc activity, target cell line over control cell line) (BCMA [2]): 2.57 fold

B7: huE59D-AT2 vHH (BCMA), NLuc fusion (VHH)
VHH: B5 VHH with F34Y, G41E, V90L, Q113L
Fold Change (Luc activity, target cell line over control cell line) (BCMA [2]): 2.99 fold

B8: KN5-USC1-R3D scFv (TAJ), NLuc fusion (scFv)
chain: QIVLTQSPAIMSASPGEKVTMTCSASSSVSFMHWYQQKSGTSPKRWIYDTSTLASGVPARFGGSGSGTSYSLTISSMEAEDAATYYCQQWSSNPLTFGAGTKLELKRGGGGSGGGGSGGGGSQVQLQQSGPELVKPGASVRISCKASGYTFTSYYIHWVKQRPGQGLEWIGWIYPGNLNTKYNEKFKGKATLTADKSSSTAYMQLSSLTSEDSAVYFCARYDWYFDVWGAGTTVTVSS
Fold Change (Luc activity, target cell line over control cell line) (TAJ/TNFRSF19): 4.35 fold

B9: AT2-K65R vHH (MSLN), NLuc fusion (VHH)
VHH: QVQLVESGGGVVQPGGSLRLSCAASGLSFSTYTVAWFRQAPGKGLEGVAAIPYTSQHMVYTDSVRGRFTISRDNSKNTLYLQMNSLRAEDTAVYYCATDRRPGTSMLAINGYNRWGQGTTVTVSS
Fold Change (Luc activity, target cell line over control cell line) (MSLN): 11.5 fold

B10: hu-mROO5-1 scFv (CD19), NLuc fusion (scFv)
chain: DIQMTQSPSSLSASVGDRVTITCKASDHINNWLAWYQQKPGQAPKLLIYGATTLETGVPSRFSGSGSGTDYTLTISSLQPEDFATYYCQQSWNTPWTFGQGTKLEIKRGGGGSGGGGSGGGGSQVQLQQPGAELVKPGASVKMSCKASGYAFSSYWINWMKQKPGQGLEWIGQIYPGDGDTNYNGKFKGRATLTADTSSSTAYMQLSSLTSEDSAVYFCARSITTVVGCAMDYWGQGTSVTVSS
Fold Change (Luc activity, target cell line over control cell line) (CD19): 933 fold

B11: huCD20-AT1 vHH (CD20), NLuc fusion (VHH)
VHH: EVQLLESGGGLVQPGGSLRLSCAASGRTFSMGWYRQAPGKGLEFVSAITYSGGSPYYADSVKGRFTISRDNSKNTVYLQMNSLRAEDTAVYYCAANPTYGSDWNAENWGQGTLVTVSS
Fold Change (Luc activity, target cell line over control cell line) (CD20): 15.6 fold
